These results are taken from patent US7897573B2, “Selective VPAC2 receptor peptide agonists” (priority 2005, dated 2011).

Like-named read-outs stand apart in the source and are kept apart here. Where no end group is shown, it is not given here. Bounds are passed on as bounds.

One data set deals with T1, Human PAC1 Receptor (Homo sapiens, UniProt P41586).
T1 construct: expressed in transfected cells
T1 sequence (P41586 21-468): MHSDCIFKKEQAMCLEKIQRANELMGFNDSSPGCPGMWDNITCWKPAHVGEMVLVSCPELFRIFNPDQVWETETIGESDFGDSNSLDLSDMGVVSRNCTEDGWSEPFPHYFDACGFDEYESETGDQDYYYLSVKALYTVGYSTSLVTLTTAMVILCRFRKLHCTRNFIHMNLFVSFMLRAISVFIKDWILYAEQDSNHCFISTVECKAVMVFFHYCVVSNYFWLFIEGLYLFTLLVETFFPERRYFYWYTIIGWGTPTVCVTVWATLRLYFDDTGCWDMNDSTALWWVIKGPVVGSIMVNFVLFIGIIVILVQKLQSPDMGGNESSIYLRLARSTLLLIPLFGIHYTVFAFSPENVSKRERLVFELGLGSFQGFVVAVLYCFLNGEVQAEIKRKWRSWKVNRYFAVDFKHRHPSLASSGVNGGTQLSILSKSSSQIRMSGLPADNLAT
The data set can be described thus: Filter binding assay, 125I-labeled PACAP-27, membranes of cells transiently transfected with human PAC1. How it is done: (§1) For this assay, the solutions and equipment include:
(§2) Presoak solution: 0.5% Polyethyleneamine in Aqua dest
(§3) Buffer for flushing filter plates: 25 mM HEPES pH 7.4
(§4) Blocking buffer: 25 mM HEPES pH 7.4; 0.2% protease free BSA
(§5) Assay buffer: 25 mM HEPES pH 7.4; 0.5% protease free BSA
(§6) Dilution and assay plate: PS-Microplate, U form
(§7) Filtration Plate Multiscreen FB Opaque Plate; […] Type B Glasfiber filter
(§8) In order to prepare the filter plates, the presoak solution is aspirated by vacuum filtration. The plates are flushed twice with 200 μL flush buffer. 200 μL blocking buffer is added to the filter plate. The filter plate is then incubated with 200 μL presoak solution for 1 hour at room temperature.
(§9) The assay plate is filled with 25 μL assay buffer, 25 μL membranes (2.5 μg) suspended in assay buffer, 25 μL agonist in assay buffer, and 25 μL tracer (about 40000 cpm) in assay buffer. The filled plate is incubated for 1 hour with shaking.
(§10) The transfer from assay plate to filter plate is conducted. The blocking buffer is aspirated by vacuum filtration and washed two times with flush buffer. 90 μL is transferred from the assay plate to the filter plate. The 90 μL transferred from assay plate is aspirated and washed three times with 200 μL flush buffer. The plastic support is removed. It is dried for 1 hour at 60° C. 30 μL Microscint is added. The count is performed.

A short description of data set [1]: Rat serum stability study (DiscoveRx cAMP read-out on CHO-VPAC2 cells). Conditions: 24 h in rat serum at 37° C.; EC50, 4° C./EC50, 37° C.; values >100% may represent release of intact peptide from the PEG conjugate. How it is done:
In order to determine the stability of VPAC2 receptor peptide agonists in rat serum, CHO-VPAC2 cells clone #6 (96 well plates/50,000 cells/well and 1 day culture), PBS 1× (Gibco), the peptides for the analysis in a 100 μM stock solution, rat serum from a sacrificed normal Wistar rat, aprotinin, and a DiscoveRx assay kit are obtained. The rat serum is stored at 4° C. until use and is used within two weeks.
The aliquot is stored with aprotinin at 4° C. The aliquot is stored without aprotinin at 37° C. The aliquots are incubated for 24 or 72 hours.
On Day 1, after incubation of the aliquots prepared on day 0 for 24 or 72 hours, an incubation buffer containing PBS+1.3 mM CaCl2, 1.2 mM MgCl2, 2 mM glucose, and 0.25 mM IBMX is prepared. A plate with 11 serial 5× dilutions of peptide for the 4° C. and 37° C. aliquot is prepared for each peptide studied. […] The plate(s) are washed with cells twice in incubation buffer. The plates are allowed to hold 50 μL incubation media per well for 15 minutes. 50 μL solution per well is transferred to the cells from the plate prepared with 11 serial 5× dilutions of peptide for the 4° C. and 37° C. aliquot for each peptide studied, using the maximal concentrations that are indicated by the primary screen, in duplicate. This step dilutes the peptide concentration by a factor of two. The cells are incubated at room temperature for 30 minutes. The supernatant is removed. 40 μL/well of the DiscoveRx antibody/extraction buffer is added. The cells are incubated on the shaker (300 rpm) for 1 hour. Normal procedure with the DiscoveRx kit is followed. cAMP standards are included in column 12. EC50 values are determined from the cAMP assay data.

A further data set deals with T2, Human VPAC1 Receptor (Homo sapiens, UniProt P32241).
T2 construct: expressed in transfected cells
T2 sequence (P32241 31-457): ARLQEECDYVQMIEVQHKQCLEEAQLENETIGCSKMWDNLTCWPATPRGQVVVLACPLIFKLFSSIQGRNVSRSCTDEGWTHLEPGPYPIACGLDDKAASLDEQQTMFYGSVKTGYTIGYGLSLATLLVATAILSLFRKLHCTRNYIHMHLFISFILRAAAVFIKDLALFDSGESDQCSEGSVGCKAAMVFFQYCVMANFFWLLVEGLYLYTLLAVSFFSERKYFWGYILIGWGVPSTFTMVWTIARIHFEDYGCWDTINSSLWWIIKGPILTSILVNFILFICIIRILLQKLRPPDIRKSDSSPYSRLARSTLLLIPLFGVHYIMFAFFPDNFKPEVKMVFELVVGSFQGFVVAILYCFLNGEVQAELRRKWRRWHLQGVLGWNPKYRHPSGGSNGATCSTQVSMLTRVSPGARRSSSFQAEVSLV
In words: Filter binding assay, 125I-labeled VIP, membranes of cells transiently transfected with human VPAC1. Conditions: 125I-labeled VIP tracer. Here is the method: as §1, §2, §3, §4, §5, §6, §7, §8, §9, §10

A short description of data set [2]: Pharmacokinetic profiles of PEGylated peptides in Fisher 344 rats. In kind it is in vivo, rat. To be noted: 100 μg agonist/kg, plasma RIA, mean N = 3. Here is the method: Pharmacokinetic profiles of PEGylated peptides. Healthy Fisher 344 rats (3 animals per group) were injected with 100 μg agonist/kg (agonist amount based on peptide content and dissolved in PBS buffer). Blood samples were drawn 3, 12, 24, 48, 72, 96 and 168 hour post dosing and the peptide content in plasma was analysed by a radio-immunoassay (RIA) directed against the N-terminus of the peptide. PK parameters were then calculated using a model-independent method (WinNonlin Pro, Pharsight Corp., Mountain View, Calif., USA).

The test system of a further data set is Normal Wistar rats. In words: Intravenous glucose tolerance test (IVGTT). The data set is classed as in vivo, rat. Conditions: AUC insulin, 0-10 min after glucose; 0.1 mg/kg; 24 h between glucose & compound; Wistar rats. How it is done:
Intravenous glucose tolerance test (IVGTT): Normal Wistar rats are fasted overnight and are anesthetized prior to the experiment. A blood sampling catheter is inserted into the rats. The agonist is given subcutaneously, normally 24 h prior to the glucose challenge. Blood samples are taken from the carotid artery. A blood sample is drawn immediately prior to the injection of glucose along with the agonist. After the initial blood sample, glucose mixed is injected intravenously (i.v.). A glucose challenge of 0.5 g/kg body weight is given, injecting a total of 1.5 mL vehicle with glucose and agonist per kg body weight. The peptide concentrations are varied to produce the desired dose in μg/kg. Blood samples are drawn at 2, 4, 6 and 10 minutes after giving glucose. The control group of animals receives the same vehicle along with glucose, but with no agonist added. In some instances, 20 and 30 minute post-glucose blood samples were drawn. Aprotinin is added to the blood sample (250-500 kIU/ml blood). The plasma is then analyzed for glucose and insulin using standard methodologies.
The assay uses a formulated and calibrated peptide stock in PBS. Normally, this stock is a prediluted 100 μM stock. However, a more concentrated stock with approximately 1 mg agonist per mL is used. The specific concentration is always known. Variability in the maximal response is mostly due to variability in the vehicle dose.

In turn, `CC[C@H](C)[C@H](NC(=O)[C@H](CO)NC(=O)[C@H](CC(N)=O)NC(=O)[C@H](CC(C)C)NC(=O)[C@H](Cc1ccc(O)cc1)NC(=O)[C@H](CCCCN)NC(=O)[C@H](CCCCN)NC(=O)[C@@H](NC(=O)[C@H](C)NC(=O)[C@H](CCSC)NC(=O)[C@H](CCC(N)=O)NC(=O)[C@H](CCCCN)NC(=O)[C@H](CCCN=C(N)N)NC(=O)[C@H](CC(C)C)NC(=O)[C@H](CCCN=C(N)N)NC(=O)[C@@H](NC(=O)[C@H](Cc1ccc(O)cc1)NC(=O)[C@H](CC(N)=O)NC(=O)[C@H](CC(=O)O)NC(=O)[C@@H](NC(=O)[C@H](Cc1ccccc1)NC(=O)[C@@H](NC(=O)[C@H](C)NC(=O)[C@H](CC(=O)O)NC(=O)[C@H](CO)NC(=O)[C@@H](N)Cc1cnc[nH]1)C(C)C)[C@@H](C)O)[C@@H](C)O)C(C)C)C(=O)N[C@@H](CC(C)C)C(=O)N[C@@H](CC(N)=O)C(=O)O` [VIP, reference compound] had an IC50 at Human PAC1 Receptor greater than 1000 nM. The “24 h stab (%)” value in data set [1] came out at 0.2%.

“C6-HSDAVFTEQY(OMe)TOrnLRAibQC(PEG40K)AAbuAibOrnYLQAibIOrnOrnGGPSSGAPPPS-NH2 (HSDAVFTEQYTXLRXQCAXXXYLQXIXXGGPSSGAPPPS; C6 acyl, PEG40K on Cys, C-terminal amide; Synthetic sequence PEGylated VPAC2 receptor agonist) [Agonist P545]” had an IC50 in the data set with Human PAC1 Receptor (125I-labeled PACAP-27 tracer) greater than 25000 nM. The concentration for half-maximal inhibition (IC50) with Human VPAC1 Receptor was greater than 25000 nM. Moreover, in data set [2], the AUC0-last was determined as 12737 ng·h/mL, the Cl/F was determined as 7 mL/h/kg, the maximum concentration (Cmax) was found to be 139 ng/mL and the Tmax was 72 h. In data set [2], this compound displayed a T½ of 43 h.

Regarding “C6-HSDAVFTEQY(OMe)TOrnLRAibQLAAbuAibOrnY(OMe)LQAibIOrnOrnGGPSSGAPPPC(PEG20K)C(PEG20K)-NH2 (HSDAVFTEQYTXLRXQLAXXXYLQXIXXGGPSSGAPPPCC; C6 acyl, non-natural residues, two PEG20K, C-terminal amide; Synthetic sequence PEGylated VPAC2 receptor agonist) [Agonist P574]”, the IC50 in the data set with Human PAC1 Receptor (125I-labeled PACAP-27 tracer) was greater than 25000 nM. Besides, the IC50 with Human VPAC1 Receptor was greater than 25000 nM. In data set [2], the AUC0-last is 3408 ng·h/mL, the Cl/F amounted to 28 mL/h/kg, the Cmax is recorded as 70 ng/mL and the Tmax was 20 h. The same compound yielded a T½ in data set [2] of 18 h. Besides, the “24 h stab (%)” value in data set [1] was found to be 288%.

“C6-HSDAVFTEQY(OMe)TOrnLRAibQLAAbuAibOrnYLQSIOrnC(PEG20K)OrnGGPSSGAPPPC(PEG20K)-NH2 (HSDAVFTEQYTXLRXQLAXXXYLQSIXCXGGPSSGAPPPC; C6 acyl, two PEG20K, C-terminal amide; Synthetic sequence PEGylated VPAC2 receptor agonist) [Agonist P555]” returned an IC50 with Human PAC1 Receptor (125I-labeled PACAP-27 tracer) greater than 25000 nM. The IC50 in the data set with Human VPAC1 Receptor was greater than 25000 nM. Also, in data set [2], the AUC0-last came out at 4918 ng·h/mL, the Cl/F is on record as 20 mL/h/kg, the Cmax is recorded as 102 ng/mL and the Tmax came out at 16 h. In data set [2], this compound yielded a T½ of 13 h. In addition, in data set [1], the “24 h stab (%)” value is given as 117%.

The compound “C6-HSDAVFTEQY(OMe)TOrnLRAibQLAAbuAibOrnyLQAibIOrnOrnGGPSSGAPPPC(PEG30K)C(PEG30K)-NH2 (HSDAVFTEQYTXLRXQLAXXXYLQXIXXGGPSSGAPPPCC; not fully specified (some residues, N-terminus, C-terminus); printed as C6-HSDAVFTEQY(OMe)TOrnLRAibQLAAbuAibOrnyLQAibIOrnOrnGGPSSGAPPPC(PEG30K)C(PEG30K)-NH2; cysteine pairing not given here) [Agonist P570]” had an IC50 with Human PAC1 Receptor (125I-labeled PACAP-27 tracer) greater than 25000 nM. In the data set with Human VPAC1 Receptor, this compound displayed an IC50 greater than 25000 nM. For the same compound, in data set [2], the AUC0-last was 3891 ng·h/mL, the Cl/F was 25 mL/h/kg, the Cmax was 71 ng/mL and the Tmax is on record as 20 h. This compound returned a T½ in data set [2] of 25 h. In addition, in the data set with Normal Wistar rats, the “% increase AUC: Dose = 0.1 mg/kg” value came to 36%.

Regarding “C6-HSDAVFTEQY(OMe)TOrnLRAibQVAAAibOrnYLQSIOrnOrnC(PEG20K)GGPSSGAPPPC(PEG20K)NH2 (HSDAVFTEQYTXLRXQVAAXXYLQSIXXCGGPSSGAPPPC; C6 acyl, two PEG20K, C-terminal amide; Synthetic sequence PEGylated VPAC2 receptor agonist) [Agonist P562]”, the IC50 in the data set with Human PAC1 Receptor (125I-labeled PACAP-27 tracer) is greater than 25000 nM. This compound also showed an IC50 with Human VPAC1 Receptor greater than 25000 nM. In addition, in data set [2], the AUC0-last amounted to 5456 ng·h/mL, the Cl/F is on record as 19 mL/h/kg, the Cmax turned out to be 120 ng/mL and the Tmax is 24 h. In data set [2], this compound yielded a T½ of 25 h. In data set [1], the “24 h stab (%)” value amounted to 213%.

As for “C6-HSDAYFTEQY(OMe)TOrnLRAibQLAAbuAibOrnYLQSIOrnK(CO(CH2)2SPEG20K)OrnGGPSSGAPPPC(PEG20K)-NH2 [Agonist P551]”, the IC50 with Human PAC1 Receptor (125I-labeled PACAP-27 tracer) and in the data set with Human VPAC1 Receptor was greater than 25000 nM each time.

Usually IC50 stands for the concentration that inhibits the measured activity by half. A high value points to weaker potency. A word on the Cmax: it is the maximum level reached in the sampled fluid or tissue. The Tmax is the time at which the peak concentration occurs.
